Publication PMC2791445, “A Novel Phase Variation Mechanism in the Meningococcus Driven by a Ligand-Responsive Repressor and Differential Spacing of Distal Promoter Elements” (PLoS Pathogens, 2009)

Biological target: the molecule itself
Assay: cross-linking; in vitro cross-linking of purified NadR, cross-linked species resolved on SDS-PAGE; data not shown

B1: NadR transcriptional regulator protein (NMB1843) of Neisseria meningitidis MC58, recombinant with an N-terminal histidine tag (natural protein)
chain: MPTQSKHASINIGLIQAREALMTQFRPILNQANITDQQWRIIRLLAENGTLDFQDLANQACILRPSLTGILTRLEKAGLVVRLKPSNDQRRVFLKLTAEGEKLYEEIGEEVDERYDAIEEVLGREKMLLLKDLLAELAKIEDALNS
notes: NadR (NMB1843), MarR family transcriptional regulator, N. meningitidis MC58; gene amplified from the MC58 genome with primers 1843-F (at the ATG) and 1843-R (past the stop codon), cloned as a 448 bp NdeI-BamHI fragment into pET15b; also called 1843 protein
stoichiometry N: 2
